From patent US20230416351A1 (Novartis, published 2023)

Biological target: T1, recombinant VEGF165 protein (human, UniProt P15692 27-191)
T1 construct: mature; the 165-residue isoform is meant; also called VEGF-A
Assay: SPR in vitro binding, drug and recombinant VEGF165, 37 C
Protocol: Drug-specific parameters used are defined based upon which drug(s) is included in the specific simulation. These values are shown in Table 2 for brolucizumab, aflibercept, and ranibizumab. The drug:VEGF binding parameter values (the dissociation rate constant “koff” and the equilibrium binding constant “Kd”) were defined on the basis of a surface plasmon resonance (SPR) in vitro binding experiment with drug and recombinant VEGF165 protein at 37° C. according to manufacturer's instructions. The hydrodynamic radius values for drug (“rh_R”) and associated drug:VEGF complexes (“rh_VR” and “rh_RVR”) were sourced from literature reports (Caruso et. al., Mol. Pharmaceutics 2020, 17, 695-709) or from computational structure models of drug and VEGF. This includes estimated hydrodynamic radius values for the heterogenous complexes consisting of one VEGF dimer and two different VEGF antagonists (“rh_ROVR”). Drug-independent parameters used are used to describe VEGF production and distribution within and out of the eye, as well as general biophysical properties of the eye such as permeability coefficients for the Inner Limiting Membrane (ILM) and Retinal Pigment Epithelium (RPE) and the clearance rate from the aqueous chamber.

T1 sequence (P15692 other isoform, or with tags, fused parts or gaps): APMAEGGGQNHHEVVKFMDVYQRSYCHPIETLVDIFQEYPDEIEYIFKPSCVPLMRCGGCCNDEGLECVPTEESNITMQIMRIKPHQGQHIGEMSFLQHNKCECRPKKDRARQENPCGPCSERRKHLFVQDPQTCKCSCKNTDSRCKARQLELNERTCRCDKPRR

Kd: 0.101 nM
B1: brolucizumab (scFv)
scFv: MEIVMTQSPSTLSASVGDRVIITCQASEIIHSWLAWYQQKPGKAPKLLIYLASTLASGVPSRFSGSGSGAEFTLTISSLQPDDFATYYCQNVYLASTNGANFGQGTKLTVLGGGGGSGGGGSGGGGSGGGGSEVQLVESGGGLVQPGGSLRLSCTASGFSLTDYYYMTWVRQAPGKGLEWVGFIDPDDDPYYATWAKGRFTISRDNSKNTLYLQMNSLRAEDTAVYYCAGGDHNSGWGLDIWGQGTLVTVSS
notes: Humanized single-chain Fv (VL-linker-VH), ~26 kDa; also called Beovu; VEGF antagonist A
